Laboratory results published in paper doi:10.1101/2023.01.09.523258 (bioRxiv, 2023).

Molecular target: the molecule itself
Test: native MS

B1: Conalbumin (Ovotransferrin/OVT) from chicken egg white (natural protein, UniProt P02789 20-705, looked up)
chain: APPKSVIRWCTISSPEEKKCNNLRDLTQQERISLTCVQKATYLDCIKAIANNEADAISLDGGQAFEAGLAPYKLKPIAAEVYEHTEGSTTSYYAVAVVKKGTEFTVNDLQGKTSCHTGLGRSAGWNIPIGTLLHRGAIEWEGIESGSVEQAVAKFFSASCVPGATIEQKLCRQCKGDPKTKCARNAPYSGYSGAFHCLKDGKGDVAFVKHTTVNENAPDQKDEYELLCLDGSRQPVDNYKTCNWARVAAHAVVARDDNKVEDIWSFLSKAQSDFGVDTKSDFHLFGPPGKKDPVLKDLLFKDSAIMLKRVPSLMDSQLYLGFEYYSAIQSMRKDQLTPSPRENRIQWCAVGKDEKSKCDRWSVVSNGDVECTVVDETKDCIIKIMKGEADAVALDGGLVYTAGVCGLVPVMAERYDDESQCSKTDERPASYFAVAVARKDSNVNWNNLKGKKSCHTAVGRTAGWVIPMGLIHNRTGTCNFDEYFSEGCAPGSPPNSRLCQLCQGSGGIPPEKCVASSHEKYFGYTGALRCLVEKGDVAFIQHSTVEENTGGKNKADWAKNLQMDDFELLCTDGRRANVMDYRECNLAEVPTHAVVVRPEKANKIRDLLERQEKRFGVNGSEKSKFMMFESQNKDLLFKDLTKCLFKVREGTTYKEFLGDKFYTVISSLKTCNPSDILQMCSFLEGK
  stoichiometry N: 2
